Experimental data: article PMC8096239, “Nse5/6 is a negative regulator of the ATPase activity of the Smc5/6 complex”

Target: Smc5/6 holo-complex (S5-S6-N2/N1-N3-N4);Nse5/6 (Saccharomyces cerevisiae;Saccharomyces …, UniProt Q08204;Q12749;P38632;Q07913;Q05541;P43124;Q03718;P40026 …, |)
Experiment: EMSA; purified super-complex containing Nse5/6; no significant perturbation vs holo-complex; EMSA: 200 nM hairpin, 20 mM HEPES-NaOH pH 7.5, 150 mM NaCl, 0.5 mM TCEP, 30 min at 4 C; 0.8% TBE-agarose gel, 50 V, 3 h, 4 C
Details: protein: recombinant;recombinant, tags: Smc5-FLAG, Smc6-AVI-HIS, HA-Nse2, HIS-TEV-Nse1, Nse3 untagged, Nse4-HALO-Myc;Nse5-C.tag (GAAEPEA), HIS-3C-Nse6, copies: 1;1;1;1;1;1;1;1, label: fluorescein on position 5 of thymine, 6-carbon spacer, 48 bp stem, 4 nt loop AATA, blunt end

B1: oligonucleotide C, self-annealed dsDNA hairpin (structured_DNA)
DNA: ATCAGTACTTGTCAACACGAGCAGCCCGTATATTCTCCTACAGCACTAAATATAGTGCTGTAGGAGAATATACGGGCTGCTCGTGTTGACAAGTACTGAT
modifications: internal fluorescein-dT (iFT), between S3 and S4 (position 51, in loop)
- binding result: binds
